# Laboratory results as given in patent publication CN112851807A (BLOOD DISEASES HOSPITAL CHINESE ACADEMY OF MEDICAL SCIENCES …, dated 2021).
# Residue numbers refer to the chain shown, from its start.
# B1: 抗CD123单克隆抗体12H7 (antibody, IgG1, V domains shown)
# VH: QVKLQESGPGLVKPSQSLSLTCTVTGYSITSDFAWNWVRQFPGDKLEWMGYISYSGGTNYHPSLKDRISITRDTSKNQVFLQLNSVTTEDTATYYCARGGMITPYFAYWGQGTLVTVSA
# VL: DVVVTQTPLSLPVSFGDQVSISCRSSQSLANSYGNTFLSWYLHKPGQSPQLLIYGISNRFSGVPDRFSGSGSGTDFTLKISTIKPEDLGIYYCLQGTHQPWTFGGGTKLEIKR
# notes: Purified from ascites; also called CGMCC 18847
# B2: 抗CD123单克隆抗体6E11 (antibody, IgG1, V domains shown)
# VH: QVQLQESGPGLVKPSQSLSLTCTVTGYSITNDFAWNWIRQFPGNKLEWMGYISFSGSTSYNPSLKGRISITRDTSKNQFFLQLNSVTTEDTATYSCARGGMITPYFSYWGQGTLVTVSA
# VL: B1 VL with Q18S, K44R, T82S, I90V
# notes: Purified from ascites; also called CGMCC 18848
# B3: 抗CD123单克隆抗体8D7 (antibody, IgG1, V domains shown)
# VH: EVQLQESGPGLVKPSQSLSLTCTVTGYSITNDYTWNWIRQFPGNKLEWMGYISFSGITSHNPSLNSRISITRDTSKNQFFLQLNSVTTEDTATYYCTRGVDFWGQGTSVTVSA
# VL: DIVLTQSPATLSVTPGDSVSLSCWASQSISNSLHWYQQKSHESPRLLIKFASQSISGIPSRFSGSGSGTDFTLSIDSVETEDFGMYFCQQGHTWPHTFGAGTKLELKR
# notes: Purified from ascites; also called CGMCC 18849
# Target: T1, 人CD123蛋白 (白细胞介素3受体α链) (human, UniProt P26951 19-378)
# T1 construct: whole, on cells; also called IL-3Rα; 3T3/CD123+
# T1 sequence (P26951 19-378): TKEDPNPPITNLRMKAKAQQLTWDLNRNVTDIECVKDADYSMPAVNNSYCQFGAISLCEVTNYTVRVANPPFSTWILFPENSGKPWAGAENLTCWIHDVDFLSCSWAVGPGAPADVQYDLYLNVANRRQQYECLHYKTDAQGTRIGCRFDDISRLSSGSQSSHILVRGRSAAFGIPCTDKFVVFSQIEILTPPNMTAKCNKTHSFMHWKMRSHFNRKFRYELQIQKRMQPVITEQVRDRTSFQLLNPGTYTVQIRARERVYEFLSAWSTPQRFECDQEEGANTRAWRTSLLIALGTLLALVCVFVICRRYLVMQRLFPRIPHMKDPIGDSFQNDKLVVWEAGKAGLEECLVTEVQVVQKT
# Assay: flow cytometry, PE-labelled antibody titrated on CD123-transfected 3T3 cells, fitted in GraphPad Prism 5
row,Binder,Kd [nM]
1,B1,2.09
2,B2,2.1
3,B3,2.01
